Assay results: doi:10.1101/2022.09.26.509586

Biological target: piggyBac transposase residues 1-558 (PB1-558) (cabbage looper moth)
Assay: AUC

stoichiometry N: 2
Substance: piggyBac transposase residues 1-558 (PB1-558) (domain or fragment)
